{
  "source": "paper PMC5098442",
  "key": {"[1]": {"molecular_target": "soluble TACE M-domain (wild type) (Homo sapiens) (UniProt P78536)", "assay": "SPR"}, "[2]": {"molecular_target": "recombinant soluble TACE ECD (human) (UniProt P78536)", "assay": "SPR"}},
  "data": [
    {"substance": "MEDI3622 (antibody)", "values": [
      {"measurement": "Kd", "setting": "[1]", "value": 2.3, "unit": "nM"},
      {"measurement": "Kd", "setting": "[2]", "value": 2, "unit": "nM"}
    ]}
  ]
}
